Data from article PMC8860610, “The fork protection complex recruits FACT to reorganize nucleosomes during replication” (Nucleic Acids Research, 2022).

Columns and labels:
Conditions in all cases: both partners purified
Spt16 subunit on its own = target: T1, Spt16 subunit on its own (Saccharomyces cerevisiae, UniProt P32558 1-1035); experiment: pull-down; 1.5 μM GST fusion proteins (Tof1_N, Tof1_M, Tof1_C, Csm3) as bait on glutathione agarose, 3 μM fl FACT or FACT truncations as prey, 90 min at 4°C, washed with buffer G (300 mM NaCl), eluted with glutathione, SDS-PAGE
T1 construct: Spt16, Saccharomyces cerevisiae, without Pob3; also called Spt16 alone; source: yeast strain yBS2, purified by the same strategy as FACT

[1] = target: T2, full-length (fl) FACT (Spt16-Pob3) (Saccharomyces cerevisiae, UniProt P32558 1-1035; Q04636 1-552); experiment: as above
T2 construct: Spt16, subunit of FACT, Saccharomyces cerevisiae; Pob3, subunit of FACT, Saccharomyces cerevisiae; His-tag cleaved by TEV protease; also called yFACT when together with Nhp6; source: yeast strain yBS2, galactose-induced, purified (HisTrap, TEV cleavage, Q column, Superdex 200)

[2] = target: T2, full-length (fl) FACT (Spt16-Pob3); experiment: pull-down; 1.5 μM CBP-Csm3Tof1 as bait on Calmodulin Affinity Resin, 3 μM fl FACT as prey, 90 min at 4°C, washed with buffer C (25 mM HEPES-NaOH pH 7.6, 300 mM NaCl, 2 mM CaCl2), eluted with EDTA and EGTA, SDS-PAGE
[3] = target: T3, FACT consisting of Spt16 and GST-tagged Pob3 (Saccharomyces cerevisiae, UniProt P32558 1-1035; Q04636 1-552); experiment: pull-down; 0.5 μM GST-Pob3Spt16 as bait with 1 μM replisome factor, on ice 30 min, immobilised on glutathione agarose 90 min at 4°C, washed with buffer G (50 mM HEPES-NaOH pH 7.6, 300 mM NaCl, 0.05% NP-40), eluted with glutathione, SDS-PAGE
T3 construct: Spt16, subunit of FACT, Saccharomyces cerevisiae; Pob3, subunit of FACT, Saccharomyces cerevisiae; The methods speak of a His-tag cleaved by TEV protease without telling which subunit carried it; also called GST-Pob3Spt16; GST-tagged Pob3-Spt16; source: yeast strain yBS2, galactose-induced, purified (HisTrap, Q column, Superdex 200)

Row | binding result (Spt16 subunit on its own) | binding result [1] | binding result [2] | binding result [3] | Binder
1 | binds | binds |  |  | GST-tagged Tof1_C (938-1238 aa) (domain or fragment, Saccharomyces cerevisiae, UniProt P53840 938-1238, looked up, Tof1, Saccharomyces cerevisiae, residues 938-1238, codon optimized for bacteria; Cloned into a pET GST-His6-TEV vector; no cleavage is described; source: E. coli BL21 (DE3) codon plus RIL, purified (GSTrap, Q column, Superdex 200)) PSSSYLLRVRSEKDSFSHNEQDGWEGDDDYDYNDPYIVPDDQILSKSDAAYFKDLDNNASDKLKGTKFSKGIARSKKKDKRKRRKGEAKTNLPMFGDQDDERPQTVRERHGVFSKEFISDSEDDEDLMNPIFFENETYMRWLLDKNNGQLTEDRYIQFAKFAAERMNNGGVVTGDYTSLFGGSIPSIESIRATESSSFAPDKSLISLASHVASEMSIFDVNNNNNNQLSDDDVNSESRNSLGSSQPSNSQNMFQSEVYSRKESTKRSLEASAADESDEDEEAIRLFGKKSRVVLSQGDSDD
2 |  |  | binds | binds | Tof1-Csm3 (full-length, CBP-tagged) (complex, Saccharomyces cerevisiae, Tof1, subunit of the fork protection complex, Saccharomyces cerevisiae (1238 aa by the printed truncation limits); Csm3, subunit of the fork protection complex, Saccharomyces cerevisiae; also called CBP-Csm3Tof1; CBP-tagged Csm3-Tof1) chain 1: MSADLQQGTTNAADFSLTVLRARIALLATAIGGPDYTSQIDPPPYKLGDDCLACLKDLKRWFKLVDDQQKRWDVAMAVAEYRILTDDLLPILIDWENKCSLAAKLAKNNPDHEEFRNKAYYDKIALNCLQLLVLMTWPLIVTEQSSSNQITLYGELKKHQLVYKKTILSMESGKVLRAAIRLALDVIKIDRLSRTPRDNMVLKLVLNFFRNVIAIEPGEFTINTKKSMPKKGITSIDTLPPNVSMDDISLNTVISSFHKNKVFGFLLTLTSSLSKEFDQDFINIPLLEIMFYFTKDVNQELLFPRQFETGTHSKVVNKNESSSANNIVTSAGFELSKLLQKEHQMRKNVIKHTSARHSRFGGLLSIQTPDKTRLTVSGSQALVDEKIALQKLDDSKKWNKRIIKKHQSVAAEGLPNSLLNSQTGKAIFFTESNGKHFKEFINNFIDSGFNILLHSVTNYFTTEQDRMVTLEQVEYLLFFAWFVKYQLLRSKIDNSADIKQVSEALKEVTFILVSSLLRSAYDLKNWTVTHAGMIAFNELLNLVSRTKAAQEEDSTDIEFIVSRLFSDERIQLLSNLPKIGSKYSLQFMKSCIELTHSVLKVLEQYSDDKTLVIEGKSRRQKKFNISEGDITKLIEEENVDRDEALDILTSSLRSIEVNFQKVQANYMTEPVIETYINFLERFRELEDDSIKKVFSFFHRVFVQAKEQALLFRFDLIILLREMLSPDGLDRMSRSRKYVSQFSDYFLARLKKRLKKSPAWFVGLLFPPLHNSEVGFYQRYGEYNVLNNESMYAAPASQFKPIPDEEALPPSILLDMKYGVLVSTLLDDGKTELLDQLLKHITHTLDIFKSWLTVNVNAGKETVNPPNEYFTLTGVLNNDPIFKDKDYRALLLLIGYSIPRKINEPCFLPGTVEVSDLTVSCELVKKYLSTPFETPNGLPSSSYLLRVRSEKDSFSHNEQDGWEGDDDYDYNDPYIVPDDQILSKSDAAYFKDLDNNASDKLKGTKFSKGIARSKKKDKRKRRKGEAKTNLPMFGDQDDERPQTVRERHGVFSKEFISDSEDDEDLMNPIFFENETYMRWLLDKNNGQLTEDRYIQFAKFAAERMNNGGVVTGDYTSLFGGSIPSIESIRATESSSFAPDKSLISLASHVASEMSIFDVNNNNNNQLSDDDVNSESRNSLGSSQPSNSQNMFQSEVYSRKESTKRSLEASAADESDEDEEAIRLFGKKSRVVLSQGDSDD chain 2: MDQDFDSLLLGFNDSDSVQKDPTVPNGLDGSVVDPTIADPTAITARKRRPQVKLTAEKLLSDKGLPYVLKNAHKRIRISSKKNSYDNLSNIIQFYQLWAHELFPKAKFKDFMKICQTVGKTDPVLREYRVSLFRDEMGMSFDVGTRETGQDLERQSPMVEEHVTSAEERPIVADSFAQDKRNVNNVDYDNDEDDDIYHLSYRNRRGRVLDERGNNETVLNNVVPPKEDLDALLKTFRVQGPVGLEENEKKLLLGWLDAHRKMEKGSMTEEDVQLIQSLEEWEMNDIEGQHTHYDLLPGGDEFGVDQDELDAMKEMGF
